Here are results for 17 molecules from US12365738B2, “Method of treating an interleukin-11-associated or -mediated fibrotic disease or condition by administering an anti-interleukin-11 receptor subunit alpha (IL-11RA) antibody” (Lassen Therapeutics, Inc., priority 2021, dated 2025).

Sequences and labels used below:
T1: hIL-11R (Homo sapiens, UniProt Q14626)
T1 sequence (Q14626 23-422): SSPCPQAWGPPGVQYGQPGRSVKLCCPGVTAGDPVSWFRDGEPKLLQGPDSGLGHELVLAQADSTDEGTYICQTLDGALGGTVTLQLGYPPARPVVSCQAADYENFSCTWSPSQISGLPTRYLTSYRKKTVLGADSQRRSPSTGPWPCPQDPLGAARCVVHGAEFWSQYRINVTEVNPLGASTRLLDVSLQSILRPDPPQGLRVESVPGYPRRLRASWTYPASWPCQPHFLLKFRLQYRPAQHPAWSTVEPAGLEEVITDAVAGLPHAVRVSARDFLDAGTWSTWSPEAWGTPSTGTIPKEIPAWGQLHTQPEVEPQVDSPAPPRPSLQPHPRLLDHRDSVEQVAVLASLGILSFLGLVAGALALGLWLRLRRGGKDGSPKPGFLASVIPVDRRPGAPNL

B1: mAb21: anti-IL-11Rα antibody, human IgG4 (S228P), kappa; VH SEQ ID NO: 233, VL SEQ ID NO: 234 (antibody, V domains shown)
VH: EVQLLESGGGLVQPGGSLRLSCAASGFTFSHYSMTWVRQAPGKGLEWVSSIVPYGDLTQYADSVKGRFTISRDNSKNTLYLQMNSLRAEDTAVYYCAKGPGWGSFDLWGRGTLVTVSS
VL: DIQMTQSPSSLSASVGDRVTITCQASQDINNYLNWYQQKPGKAPKLLIYDASNLQTGVPSRFSGSGSGTDFTFTISSLQPEDIATYYCQQHESQSPTFGPGTKVDIK
modifications: IgG4 S228P kappa constant regions; mAb21 VH Chain; mAb21 VL Chain
B2: mAb23: anti-IL-11Rα antibody, human IgG4 (S228P), kappa; VH SEQ ID NO: 237, VL SEQ ID NO: 238 (antibody, V domains shown)
VH: B1 VH with H31K
VL: B1 VL
modifications: IgG4 S228P kappa constant regions; mAb23 VH Chain; mAb23 VL Chain
B3: mAb29: anti-IL-11Rα antibody, human IgG4 (S228P), kappa; VH SEQ ID NO: 249, VL SEQ ID NO: 250 (antibody, V domains shown)
VH: B1 VH with H31S
VL: B1 VL
modifications: IgG4 S228P kappa constant regions; mAb29 VH Chain; mAb29 VL Chain
B4: mAb31: anti-IL-11Rα antibody, human IgG4 (S228P), kappa; VH SEQ ID NO: 253, VL SEQ ID NO: 254 (antibody, V domains shown)
VH: B1 VH with H31V
VL: B1 VL
modifications: IgG4 S228P kappa constant regions; mAb31 VH Chain; mAb31 VL Chain
B5: mAb28: anti-IL-11Rα antibody, human IgG4 (S228P), kappa; VH SEQ ID NO: 247, VL SEQ ID NO: 248 (antibody, V domains shown)
VH: B1 VH with H31R
VL: B1 VL
modifications: IgG4 S228P kappa constant regions; mAb28 VH Chain; mAb28 VL Chain
B6: mAb20: anti-IL-11Rα antibody, human IgG4 (S228P), kappa; VH SEQ ID NO: 231, VL SEQ ID NO: 232 (antibody, V domains shown)
VH: B1 VH with H31G
VL: B1 VL
modifications: IgG4 S228P kappa constant regions; mAb20 VH Chain; mAb20 VL Chain
B7: mAb26: anti-IL-11Rα antibody, human IgG4 (S228P), kappa; VH SEQ ID NO: 243, VL SEQ ID NO: 244 (antibody, V domains shown)
VH: B1 VH with H31N
VL: B1 VL
modifications: IgG4 S228P kappa constant regions; mAb23 VH Chain; mAb26 VL Chaim
B8: mAb25: anti-IL-11Rα antibody, human IgG4 (S228P), kappa; VH SEQ ID NO: 241, VL SEQ ID NO: 242 (antibody, V domains shown)
VH: B1 VH with H31M
VL: B1 VL
modifications: IgG4 S228P kappa constant regions; mAb25 VH Chain; mAb25 VL Chain
B9: mAb27: anti-IL-11Rα antibody, human IgG4 (S228P), kappa; VH SEQ ID NO: 245, VL SEQ ID NO: 246 (antibody, V domains shown)
VH: B1 VH with H31P
VL: B1 VL
modifications: IgG4 S228P kappa constant regions; mAb27 VH Chain; mAb27 VL Chain
B10: mAb17: anti-IL-11Rα antibody, human IgG4 (S228P), kappa; VH SEQ ID NO: 225, VL SEQ ID NO: 226 (antibody, V domains shown)
VH: B1 VH with H31D
VL: B1 VL
modifications: IgG4 S228P kappa constant regions; mAb17 VH Chain; mAb17 VL Chain
B11: mAb24: anti-IL-11Rα antibody, human IgG4 (S228P), kappa; VH SEQ ID NO: 239, VL SEQ ID NO: 240 (antibody, V domains shown)
VH: B1 VH with H31L
VL: B1 VL
modifications: IgG4 S228P kappa constant regions; mAb24 VH Chain; mAb24 VL Chain
B12: mAb32: anti-IL-11Rα antibody, human IgG4 (S228P), kappa; VH SEQ ID NO: 255, VL SEQ ID NO: 256 (antibody, V domains shown)
VH: B1 VH with H31Y
VL: B1 VL
modifications: IgG4 S228P kappa constant regions; mAb32 VH Chain; mAb32 VL Chain
B13: mAb19: anti-IL-11Rα antibody, human IgG4 (S228P), kappa; VH SEQ ID NO: 229, VL SEQ ID NO: 230 (antibody, V domains shown)
VH: B1 VH with H31F
VL: B1 VL
modifications: IgG4 S228P kappa constant regions; mAb19 VH Chain; mAb19 VL Chain
B14: mAb30: anti-IL-11Rα antibody, human IgG4 (S228P), kappa; VH SEQ ID NO: 251, VL SEQ ID NO: 252 (antibody, V domains shown)
VH: B1 VH with H31T
VL: B1 VL
modifications: IgG4 S228P kappa constant regions; mAb30 VH Chain; mAb30 VL Chain
B15: mAb16: anti-IL-11Rα antibody, human IgG4 (S228P), kappa; VH SEQ ID NO: 223, VL SEQ ID NO: 224 (antibody, V domains shown)
VH: B1 VH with H31A
VL: B1 VL
modifications: IgG4 S228P kappa constant regions; mAb16 VH Chain; mAb16 VL Chain
B16: mAb18: anti-IL-11Rα antibody, human IgG4 (S228P), kappa; VH SEQ ID NO: 227, VL SEQ ID NO: 228 (antibody, V domains shown)
VH: B1 VH with H31E
VL: B1 VL
modifications: IgG4 S228P kappa constant regions; mAb18 VH Chain; mAb18 VL Chain
B17: mAb22: anti-IL-11Rα antibody, human IgG4 (S228P), kappa; VH SEQ ID NO: 235, VL SEQ ID NO: 236 (antibody, V domains shown)
VH: B1 VH with H31I
VL: B1 VL
modifications: IgG4 S228P kappa constant regions; mAb22 VH Chain; mAb22 VL Chain

Where a chain is given by its changes, count along the chain named. Numbers in names are those of the source.

The first test has as its target T1, hIL-11R. Kind of test: Alternate biolayer interferometry assay (AHC biosensors) ranking mAbs 16-32 against mAb5. The test is classed as binding. To be noted: AHC biosensors. The text has this: A further series of antibodies were designed in which the residue at Kabat position 31 of the heavy chain was varied (mAbs 16-32). In this case an alternate biolayer interferometry assay was used to initially rank the antibodies compared to mAb5, the closest relative in sequence to mAbs 16-32. MAbs were loaded onto anti-human constant domain (AHC) biosensors (FortéBio) in 10×kinetics buffer consisting of PBS, 0.1% BSA, 0.02% polysorbate 20 (TWEEN™) for 120 s to achieve a spectral shift value of 0.8 to 1.2 nm. Association was carried out in the presence of 2-fold dilution series of hIL-11R and was allowed to proceed for 120 s. Dilution series started 10 nM. The dissociation in 10×kinetics buffer for 1200 s. Binding kinetic measurements were taken on an Octet RED96e instrument.
On the technique in general: BLI is a label-free optical method that tracks binding on a fibre tip over time.
Consider B1, for which the ka worked out at 750000 M⁻¹ s⁻¹ and the kd entry is “off-scale”.
As to B2, the ka was 720000 M⁻¹ s⁻¹ and the kd result is on record as “off-scale”.
B3 returned a ka of 610000 M⁻¹ s⁻¹ and a kd of 1.8e-05 s⁻¹.
Consider B4, for which the ka was found to be 690000 M⁻¹ s⁻¹ and the kd entry is given as “off-scale”.

The test is the same for the next values; noted with them: compared to mAb5.
Take B1: the “potency compared to mAb5 by more detailed kinetic measurements (in words)” value (“potency compared to mAb5” for short) is reported as “further improved potency”.
Still for that read-out and setting: the entry for B2 is “further improved potency”.
Take B3: the “potency compared to mAb5” value is given as “further improved potency”.
As to B4, the “potency compared to mAb5” value is given as “further improved potency”.

The test is the same for the next values; noted with them: compared to mAb5 (comparator).
As for B1, the qualitative assessment result is on record as “improved/”.
In the case of B2, the qualitative assessment entry is on record as “improved/”.
Turning to B3, the qualitative assessment result is recorded as “improved/”.
For the molecule B5, the qualitative assessment entry is listed as “similar”.
Turning to B6, the qualitative assessment entry is reported as “similar”.
For the molecule B7, the qualitative assessment result is listed as “decreased”.
For B8, the qualitative assessment entry is “similar”.
On to B9, for which the qualitative assessment result is “decreased”.
B10: the qualitative assessment entry is “decreased”.
B11: the qualitative assessment entry is reported as “similar”.
Still for that read-out and setting: the entry for B12 is “similar”; for B13 it is “similar”.
Regarding B4, the qualitative assessment result is reported as “improved/”.
B14: the qualitative assessment result is on record as “decreased”.
Take B15: the qualitative assessment entry is “similar”.
Same read-out and setting: with B16 the entry was “decreased”; with B17, “similar”.
